# Laboratory results reported in publication doi:10.1101/2021.10.27.466211 (bioRxiv, 2021).
# Target: the molecule itself
# Assay: cross-linking
protein,measurement,value
"PomA-L22C/T33C (natural protein, Vibrio alginolyticus, UniProt O06873 1-253, looked up) MDLATLLGLIGGFAFVIMAMVCGGSIGMFVDVCSILIVVGGSIFVVLMKFTMGQFFGATKIAGKAFMFKADEPEDLIAKIVEMADAARKGGFLALEEMEINNTFMQKGIDLLVDGHDADVVRAALKKDIALTDERHTQGTGVFRAFGDVAPAMGMIGTLVGLVAMLSNMDDPKAIGPAMAVALLTTLYGAILSNMVFFPIADKLSLRRDQETLNRRLIMDGVLAIQDGQNPRVIDSYLKNYLNEGKRALEIDE",stoichiometry N,≤ 5
